Experimental data taken from patent US20240059789A1 (Janssen / Centocor, published 2024).
Residue numbers refer to the chain shown, from its start.

B1: PS3B1357 (bispecific antibody, human IgG1, lambda, L234A L235A)
heavy 1: QVQLQQSGPGLVKPSQTLSLTCAISGDSVFNNNAAWSWIRQSPSRGLEWLGRTYYRSKWLYDYAVSVKSRITINPDTSKNQFSLQLNSVTPEDTAVYYCARGYSSSFDYWGQGTLVTVSSASTKGPSVFPLAPSSKSTSGGTAALGCLVKDYFPEPVTVSWNSGALTSGVHTFPAVLQSSGLYSLSSVVTVPSSSLGTQTYICNVNHKPSNTKVDKKVEPKSCDKTHTCPPCPAPEAAGGPSVFLFPPKPKDTLMISRTPEVTCVVVSVSHEDPEVKFNWYVDGVEVHNAKTKPREEQYNSTYRVVSVLTVLHQDWLNGKEYKCKVSNKALPAPIEKTISKAKGQPREPQVYTLPPSREEMTKNQVSLTCLVKGFYPSDIAVEWESNGQPENNYKTTPPVLDSDGSFLLYSKLTVDKSRWQQGNVFSCSVMHEALHNHYTQKSLSLSPGK
light 1: QSALTQPASVSGSPGQSITISCTGTSSNIGTYKFVSWYQQHPGKAPKVMIYEVSKRPSGVSNRFSGSKSGNTASLTISGLQAEDEADYYCVSYAGSGTLLFGGGTKLTVLGQPKAAPSVTLFPPSSEELQANKATLVCLISDFYPGAVTVAWKADSSPVKAGVETTTPSKQSNNKYAASSYLSLTPEQWKSHRSYSCQVTHEGSTVEKTVAPTECS
heavy 2: EVQLVESGGGLVQPGGSLRLSCAASGFTFSSYAMSWVRQAPGKGLEWVSAISGGIGSTYYADSVKGRFTISRDNSKNTLWLQMNSLRAEDTAVYYCAKDGVGATPYYFDYWGQGTLVTVSSASTKGPSVFPLAPSSKSTSGGTAALGCLVKDYFPEPVTVSWNSGALTSGVHTFPAVLQSSGLYSLSSVVTVPSSSLGTQTYICNVNHKPSNTKVDKKVEPKSCDKTHTCPPCPAPEAAGGPSVFLFPPKPKDTLMISRTPEVTCVVVSVSHEDPEVKFNWYVDGVEVHNAKTKPREEQYNSTYRVVSVLTVLHQDWLNGKEYKCKVSNKALPAPIEKTISKAKGQPREPQVYTLPPSREEMTKNQVSLTCLVKGFYPSDIAVEWESNGQPENNYKTTPPVLDSDGSFFLYSRLTVDKSRWQQGNVFSCSVMHEALHNHYTQKSLSLSPGK
light 2: QSVLTQPPSVSAAPGQKVTISCSGSSSNIGINYVSWYQQLPGTAPKLLIYDNNKRPSGIPDRFSGSKSGTSATLGITGLQTGDEADYYCGTWDSSLSAVVFGGGTKLTVLGQPKAAPSVTLFPPSSEELQANKATLVCLISDFYPGAVTVAWKADSSPVKAGVETTTPSKQSNNKYAASSYLSLTPEQWKSHRSYSCQVTHEGSTVEKTVAPTECS
B2: PS3B1352 (bispecific antibody, human IgG1, lambda, L234A L235A)
heavy 1: B1 heavy 1 with G10R, K13R, I73V, K79R, S83T, V96L
light 1: B1 light 1 with G43D, M49L, I50L, N62S, E85Q, Y89H
heavy 2: B1 heavy 2
light 2: B1 light 2 with I31N, V99Y, G103T, L107V
B3: PS3B1353 (bispecific antibody, human IgG1, lambda, L234A L235A)
heavy 1: B1 heavy 1 with G10R, K13R, I73V, K79R, S83T, V96L
light 1: B1 light 1 with G43D, M49L, I50L, N62S, E85Q, Y89H
heavy 2: B1 heavy 2
light 2: B1 light 2
B4: PS3B1355 (bispecific antibody, human IgG1, lambda, L234A L235A)
heavy 1: B1 heavy 1 with G10R, K13R, I73V, K79R, S83T, V96L
light 1: B1 light 1 with G43D, M49L, I50L, N62S, E85Q, Y89H
heavy 2: B1 heavy 2 with I55S, W80Y, T91S
light 2: B1 light 2
B5: PSMB937 (bispecific antibody, human IgG1, lambda, L234A L235A)
heavy 1: QVQLQQSGPGLVKPSQTLSLTCAISGDSVFNNNAAWSWIRQSPSRGLEWLGRTYYRSKWLYDYAVSVKSRITINPDTSKNQFSLQLNSVTPEDTAVYYCARGYSSSFDYWGQGTLVTVSSASTKGPSVFPLAPSSKSTSGGTAALGCLVKDYFPEPVTVSWNSGALTSGVHTFPAVLQSSGLYSLSSVVTVPSSSLGTQTYICNVNHKPSNTKVDKKVEPKSCDKTHTCPPCPAPEAAGGPSVFLFPPKPKDTLMISRTPEVTCVVVSVSHEDPEVKFNWYVDGVEVHNAKTKPREEQYNSTYRVVSVLTVLHQDWLNGKEYKCKVSNKALPAPIEKTISKAKGQPREPQVYTLPPSREEMTKNQVSLTCLVKGFYPSDIAVEWESNGQPENNYKTTPPVLDSDGSFLLYSKLTVDKSRWQQGNVFSCSVMHEALHNHYTQKSLSLSPG
light 1: B1 light 1
heavy 2: EVQLVESGGGLVQPGGSLRLSCAASGFTFSSYAMSWVRQAPGKGLEWVSAISGGSGSTYYADSVKGRFTISRDNSKNTLYLQMNSLRAEDSAVYYCAKDGVGATPYYFDYWGQGTLVTVSSASTKGPSVFPLAPSSKSTSGGTAALGCLVKDYFPEPVTVSWNSGALTSGVHTFPAVLQSSGLYSLSSVVTVPSSSLGTQTYICNVNHKPSNTKVDKKVEPKSCDKTHTCPPCPAPEAAGGPSVFLFPPKPKDTLMISRTPEVTCVVVSVSHEDPEVKFNWYVDGVEVHNAKTKPREEQYNSTYRVVSVLTVLHQDWLNGKEYKCKVSNKALPAPIEKTISKAKGQPREPQVYTLPPSREEMTKNQVSLTCLVKGFYPSDIAVEWESNGQPENNYKTTPPVLDSDGSFFLYSRLTVDKSRWQQGNVFSCSVMHEALHNHYTQKSLSLSPG
light 2: B1 light 2 with I31N, V99Y, G103T, L107V
B6: PS3B1354 (bispecific antibody, human IgG1, lambda, L234A L235A)
heavy 1: B1 heavy 1 with G10R, K13R, I73V, K79R, S83T, V96L
light 1: B1 light 1 with G43D, M49L, I50L, N62S, E85Q, Y89H
heavy 2: B1 heavy 2 with I55S, W80Y, T91S
light 2: B1 light 2 with I31N, V99Y, G103T, L107V
B7: PS3B1358 (bispecific antibody, human IgG1, lambda, L234A L235A)
heavy 1: B1 heavy 1
light 1: B1 light 1
heavy 2: B1 heavy 2 with I55S, W80Y, T91S
light 2: B1 light 2

Each binder was assayed against T1, Human PSMA on prostate cancer cell lines (C4-2B, 22RV1) (human, UniProt Q04609 1-750) (assay: cell-based or functional assay).
T1 sequence (Q04609 whole entry): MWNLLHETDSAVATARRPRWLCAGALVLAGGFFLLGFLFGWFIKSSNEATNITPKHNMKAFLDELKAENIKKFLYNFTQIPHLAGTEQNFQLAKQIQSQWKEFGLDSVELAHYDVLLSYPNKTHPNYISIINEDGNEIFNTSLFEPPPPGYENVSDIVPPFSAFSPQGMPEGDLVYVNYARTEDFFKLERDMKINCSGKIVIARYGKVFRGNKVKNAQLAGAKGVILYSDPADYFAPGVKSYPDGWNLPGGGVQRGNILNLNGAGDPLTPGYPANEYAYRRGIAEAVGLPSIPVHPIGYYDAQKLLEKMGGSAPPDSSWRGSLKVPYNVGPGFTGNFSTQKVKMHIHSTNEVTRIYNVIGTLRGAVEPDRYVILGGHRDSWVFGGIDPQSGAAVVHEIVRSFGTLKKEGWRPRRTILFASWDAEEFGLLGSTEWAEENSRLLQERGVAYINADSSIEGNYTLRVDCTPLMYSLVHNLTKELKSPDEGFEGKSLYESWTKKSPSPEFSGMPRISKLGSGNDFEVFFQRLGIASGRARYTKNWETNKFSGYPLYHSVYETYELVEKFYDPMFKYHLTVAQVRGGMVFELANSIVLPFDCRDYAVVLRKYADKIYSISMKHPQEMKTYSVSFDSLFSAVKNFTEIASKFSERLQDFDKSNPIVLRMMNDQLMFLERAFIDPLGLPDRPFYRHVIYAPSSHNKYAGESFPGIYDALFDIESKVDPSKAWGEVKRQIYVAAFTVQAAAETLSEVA

% cytolysis at 120 hours (C4-2B, xCelligence, donor #1) at 80 pM | % cytolysis at 120 hours (C4-2B, xCelligence, donor #1) at 0.4 nM | % cytolysis at 120 hours (C4-2B, xCelligence, donor #1) at 2 nM | % cytolysis at 120 hours (C4-2B, xCelligence, donor #1) at 10 nM | % cytolysis at 120 hours (C4-2B, xCelligence, donor #1) at 50 nM | % cytolysis at 120 hours (C4-2B, xCelligence, donor #2) at 80 pM | % cytolysis at 120 hours (C4-2B, xCelligence, donor #2) at 0.4 nM | % cytolysis at 120 hours (C4-2B, xCelligence, donor #2) at 2 nM | % cytolysis at 120 hours (C4-2B, xCelligence, donor #2) at 10 nM | % cytolysis at 120 hours (C4-2B, xCelligence, donor #2) at 50 nM | Binder
100% | 100% | 100% | 100% | 100% | 100% | 100% | 100% | 100% | 100% | B1
77% | 100% | 100% | 100% | 100% | 0% | 100% | 100% | 100% | 100% | B2
100% | 100% | 100% | 100% | 100% | 100% | 100% | 100% | 100% | 100% | B3

Same assay, conditions: not given

% cytolysis at 120 hours (C4-2B, xCelligence, donor #3) at 80 pM | % cytolysis at 120 hours (C4-2B, xCelligence, donor #3) at 0.4 nM | % cytolysis at 120 hours (C4-2B, xCelligence, donor #3) at 2 nM | % cytolysis at 120 hours (C4-2B, xCelligence, donor #3) at 10 nM | % cytolysis at 120 hours (C4-2B, xCelligence, donor #3) at 50 nM | Binder
100% | 100% | 100% | 100% | 100% | B1
9% | 100% | 100% | 100% | 100% | B2
100% | 100% | 100% | 100% | 100% | B3

Molecular target: T1, Human PSMA on prostate cancer cell …
Test: cell-based or functional assay
Remark: another data set of the same source

Binder | Cytotoxicity (C4-2B cells, 3:1 E:T ratio, 5 Day) at 0.3 nM | Cytotoxicity (C4-2B cells, 3:1 E:T ratio, 5 Day) at 1.1 nM | Cytotoxicity (C4-2B cells, 3:1 E:T ratio, 5 Day) at 3.3 nM | Cytotoxicity (C4-2B cells, 3:1 E:T ratio, 5 Day) at 10 nM | Cytotoxicity (C4-2B cells, 3:1 E:T ratio, 5 Day) at 30 nM
B1 | 96% | 96% | 95% | 96% | 91%
B2 | 65% | 88% | 89% | 85% | 79%
B4 | 92% | 97% | 96% | 95% | 94%
B5 | – | – | – | – | 41%
B6 | – | – | 30% | 72% | 84%
B7 | 68% | 90% | 93% | 94% | 88%
B3 | 98% | 98% | 97% | 95% | 92%
